This is an account of results in patent US20220144895A1, “DE NOVO DESIGN OF TUNABLE PH-DRIVEN CONFORMATIONAL SWITCHES” (University of Washington, priority 2019, published 2022).

Data set [1] is described as follows: Fluorescence dequenching liposome leakage (liposome disruption) assay. Format: biochemical. The following applies: for pH-dependent liposome disruption: 2.5 μM protein with respect to monomer, SRB leakage; for liposome disruption activity at pH 4.75: pH 4.75, 2.5 μM protein. Here is the method: Liposomes composed of DOPC (1,2-dioleoyl-sn-glycero-3-phosphocholine), DOPC with 25% cholesterol (molar ratio to DOPC), 3:1 DOPC:POPS (1-palmitoyl-2-oleoyl-sn-glycero-3-phospho-L-serine), and 3:1 DOPC:POPS with 25% cholesterol were prepared identically to a final concentration of 5 mM total lipid as previously described (32); lipids from Avanti Polar Lipids. Lipids solubilized in chloroform were dried under nitrogen gas and stored under vacuum for a minimum of 2 hours to remove residual solvent. The dried lipid film was the resuspended in Tris buffer (10 mM Tris, 150 mM NaCl, and 0.02% NaN3 pH 8.0) containing 25 mM Sulforhodamine B (SRB) fluorophore (Sigma) and subjected to 10 sequential freeze thaw cycles in liquid nitrogen. Liposomes were extruded 29 times through 100 nm pore size polycarbonate filters (Avanti Polar Lipids) and purified from free fluorophore using a PD-10 gel filtration column (GE Healthcare) into storage buffer (10 mM Tris, 150 mM NaCl, and 0.02% NaN3 pH 8.0). Liposome size and homogeneity was analyzed by dynamic light scattering (DLS) using a Dynapro Nanostar™ DLS (Wyatt Technologies). On average liposome diameter ranged from 120-130 nm with low polydispersity. Liposomes were stored at 4° C. and used within 5 days of preparation.
Liposome disruption and content leakage was analyzed by fluorescence spectroscopy as previously described (32). […] The solution was rapidly acidified to the target pH by addition of a fixed volume of acidification buffer and incubated for 20 minutes. […] SRB fluorescence is independent of pH within the ranges used here. Finally. Triton X-100 (Sigma) was added to a final concentration of 1% to fully disrupt liposomes. Liposome disruption as indicated by content leakage and SRB dequenching was normalized using the formula [Fω−F(0)]/[F(Max)−F(0)] where F(0) is the average fluorescence intensity before acidification and F(Max) is the average fluorescence intensity ater addition of Triton X-100. All measurements were collected on a Varian Cary Eclipse spectrophotometer using an excitation/emission pairing of […] and 2.5 nm slit widths at 24° C. Any data plotted together was collected using the sum batch of liposomes.

A short description of data set [2]: Native mass spectrometry of pH-induced changes in oligomeric state. The following applies: for cooperativity of the pH-induced transition: native MS at different pH values; for pH transition point of disassembly (pH set point, pH0) / pH response of oligomeric state (pH-induced disassembly): native MS; for pH transition point of disassembly (pH set point, pH0): evaluated from pH 7 down to pH 3; for pH response of oligomeric state (pH-induced disassembly): pH ~7 to ~3; for reversibility of disassembly: pH lowered with acetic acid, then raised by ammonia or buffer exchange. Type of data set: physicochemical. Here is the method: Samples were buffer exchanged twice into 200 mM ammonium acetate (NH4Ac; MilliporeSigma) using Micro Bio-Spin P-6 columns (Bio-Rad). Protein concentrations were determined by UV absorbance using a Nanodrop 2000c spectrophotometer (Thermo Fisher Scientific) and diluted to make up a 10-fold stock solution (50 μM and 16.7 μM monomer and trimer concentration, respectively). 1 μL of this solution was mixed with 9 μL 200 mM NH4Ac/50 mM triethylammonium acetate (TEAA; MilliporeSigma), adjusted with acetic acid (Fisher Scientific) to obtain the desired final pH and incubated on ice for 30 min. […] 5 μL samples were filled into an in-house pulled glass capillary and ionized by nESI at a monomer or a trimer concentration of 5 μM or 1.67 μM respectively. All pH titration data were acquired on an in-house modified SYNAPT® G2 HDMS (Waters Corporation) with a surface-induced dissociation (SID) device incorporated between a truncated trap traveling wave ion guide and the ion mobility cell (39). The following instrument parameters were used spray voltage 0.9-1.3 kV; sampling cone, 20 V; extraction cone, 2 V; source temperature, room temperature; trap gas flow, 4 mL/min; trap bins, 45V. The data were processed with MassLynx™ v4.1 and DriftScope™ v2.1. For relative quantification, charge state series were extracted from DriftScope™, and smoothed spectra (mean; window 20; number of smooths 20) were integrated.
Python scripts were written to generate theoretical models according Equation 1, and curve-fitting to native mass spectrometry data (FIGS. 1, 3, 5) according to Equation 2 by nonlinear least squares using curve fit from scipy.optimize. The free energy estimates for individual n, m, and l layers used in Equation 1 modeling were estimated by solving linear equations as follows: values for the free energy of folding for designs pRO-2 and variants were estimated from GdmCl denaturation experiments (FIG. 11); each of these designs have different numbers of n, m, and l layers, thus series of linear equations relating the number of each layer type to the total free energies of folding were solved to estimate dG values of the individual layers of each type.

A short description of data set [3]: Circular dichroism: GdmCl chemical denaturation and temperature melts. The following applies: CD at 222 nm, PBS pH 7.4 or Na2PO4-Citrate at lower pH.
From the text: For low-pH experiments involving circular dichroism (CD), small-angle X-ray scattering (SAXS), and size exclusion chromatography (SEC), Na2PO4-Citrate buffer was used to ensure that a single buffer system could be used that was stable over the entire pH range to be tested. Buffers were made using established ratios of stock solutions of 0.2 M Na2PO4 and 0.1 M Citrate; final pH was adjusted using hydrochloric acid (HCl) or sodium hydroxide (NaOH) if needed.
CD wavelength scans (260 to 195 nm) and temperature melts (25 to 95° C.) were measured using a JASCO™ J-1500 or an AVIV™ model 420 CD spectrometer. Temperature melts monitored absorption signal at 222 nm and were carried out at a heating rate of 4° C./min; protein samples were at 0.25 mg/mL in either phosphate buffered saline (PBS) pH 7.4 or Na2PO4-Citrate at indicated pH values (see Buffers systems for varying pH). Guanidinium chloride (GdmCl) titrations were all performed on an AVIV 420 spectrometer with an automated titration apparatus using either PBS pH 7.4 or Na2PO4-Citrate buffers at indicated pH at room temperature, monitoring helical signal at 222 nm, using a protein concentration of 0.025 mg/mL in a 1 cm cuvette with stir bar. Each titration consisted of at least 30 evenly distributed concentration points with one minute mixing time for each step. Titrant solution consisted of the same concentration of protein in the same buffer system plus GdmCl; GdmCl concentration of starting solutions was determined by reactive index.
Data set [4] deals with the molecule itself. The data set is described as follows: native mass spectrometry; homotrimer. Here is the method:
Oligomeric state was assessed by size-exclusion chromatography (SEC) and native mass spectrometry (24).
Samples were buffer exchanged twice into 200 mM ammonium acetate (NH₄Ac; MilliporeSigma) using Micro Bio-Spin P-6 columns (Bio-Rad). Protein concentrations were determined by UV absorbance using a Nanodrop 2000c spectrophotometer (Thermo Fisher Scientific) and diluted to make up a 10-fold stock solution (50 μM and 16.7 μM monomer and trimer concentration, respectively). 1 μL of this solution was mixed with 9 μL 200 mM NH₄Ac/50 mM triethylammonium acetate (TEAA; MilliporeSigma), adjusted with acetic acid (Fisher Scientific) to obtain the desired final pH and incubated on ice for 30 min.

The mark [5] stands for this setting: fused at its n-terminus to a nanoparticle.

“Also recorded” adds a separate entry of the source.

B1: pRO-2 I70N: pRO-2 mutant, SEQ ID NO: 21-22 (protein)
chain 1: MGSHHHHHHGSGSENLYFQGSEYEIRKALEELKAATAELKRATASLRAITEELKKNPSEDALVEHNRAIVEHNAIIVEHNRIIAAVLELNVRAIK
chain 2: GSEYEIRKALEELKAATAELKRATASLRAITEELKKNPSEDALVEHNRAIVEHNAIIVEHNRIIAAVLELNVRAIK
On to B1, for which the results for the pH-dependent liposome disruption result in data set [1] and in data set [1] (listed as pRO-2170N) were “attenuation of pH-induced liposome disruption” and “attenuates liposome activity”, respectively.

B2: pRO-2 A54M: pRO-2 mutant, SEQ ID NO: 19-20 (protein)
chain 1: MGSHHHHHHGSGSENLYFQGSEYEIRKALEELKAATAELKRATASLRAITEELKKNPSEDALVEHNRAIVEHNMIIVEHNRIIAAVLELIVRAIK
chain 2: GSEYEIRKALEELKAATAELKRATASLRAITEELKKNPSEDALVEHNRAIVEHNMIIVEHNRIIAAVLELIVRAIK
As for B2, in data set [2], the “cooperativity of the pH-induced transition” value is on record as “Neither of the mutations substantially affect the cooperativity” and the “pH transition point of disassembly (pH set point, pH0)” value is reported as “decreases the transition pH”. In addition, in data set [3], the “folding stability by GdmCl denaturation” value is listed as “increases stability”.

B3: pRO-3.1: pRO-3 variant, SEQ ID NO: 25-26 (protein)
chain 1: MGSHHHHHHGSGSENLYFQGSEALYELEKATRELKKATDELERATEELEKNPSEDALVEHNRLIAEHNKIIAEHNRIIAKVLK
chain 2: GSEALYELEKATRELKKATDELERATEELEKNPSEDALVEHNRLIAEHNKIIAEHNRIIAKVLK
As for B3, in data set [2], the “pH response of oligomeric state (pH-induced disassembly)” value is on record as “more pH-sensitive than design pRO-3” and the reversibility of disassembly result is listed as “re-association of monomers into trimer”. Moreover, in data set [1], the pH-dependent liposome disruption result is “did not exhibit any liposome disruption” and the “liposome disruption activity at pH 4.75” value was “does not”.

B4: pRO-3: designed homotrimer, SEQ ID NO: 23-24 (protein)
chain 1: MGSHHHHHHGSGSENLYFQGSEALYELEKALRELKKATAALERATAELKKNPSEDALVEHNRLIAAHNKIIAEVLRIIAKVLK
chain 2: GSEALYELEKALRELKKATAALERATAELKKNPSEDALVEHNRLIAAHNKIIAEVLRIIAKVLK
Consider B4, for which, in data set [1], the pH-dependent liposome disruption entry is “caused pH-dependent liposome disruption” and the “liposome disruption activity at pH 4.75” value was “shows liposome disruption activity”.

B5: pRO-2.1 subunit (designed binder)
chain: SEYEIRKALEELKAALAELKRATASLRAITEELKKNPSEDALVEHNRAIVEHNAIIVEVLRIIAAVLELIVRAIK
notes: forms a homotrimer; Tag-free form
Consider B5, for which the binding result in data set [4] is recorded as “binds”.

B6: pRO-2.5: pRO-2 variant, SEQ ID NO: 11-12 (protein)
chain 1: MGSHHHHHHGSGSENLYFQGSEYEIRKALEELKASTAELKRATASLRASTEELKKNPSEDALVENNRLIVEHNAIIVENNRIIAAVLELIVRAIK
chain 2: SEYEIRKALEELKASTAELKRATASLRASTEELKKNPSEDALVENNRLIVEHNAIIVENNRIIAAVLELIVRAIK
With B6, in data set [2], the “cooperativity of the pH-induced transition” value is reported as “least cooperative design tested”; the “pH transition point of disassembly (pH set point, pH0)” value was about 4 pH; the reversibility of disassembly result is listed as “Re-association was induced”. Besides, the “folding stability by GdmCl denaturation” value in data set [3] is given as “lowest stability”.

B7: pRO-2.5 subunit (designed binder)
chain: SEYEIRKALEELKASTAELKRATASLRASTEELKKNPSEDALVENNRLIVEHNAIIVENNRIIAAVLELIVRAIK
notes: forms a homotrimer; Tag-free form; also called PDB 6MSR
As to B7, the binding result in data set [4] is “binds”.

B8: SEQ ID NO: 40: as SEQ ID NO: 39 but third asparagine network mutated to all hydrophobics (protein)
chain: GSEEEIKRLLEELRKALEELRRITKELDDLSKELRVGGSGSGSLVPRGSGSGSGSHALVEHNKLISEHNRIVVEVLRIIAEILEAIARVGGSGSGSVEVERILDELRKALEELDRVTKELKKLTEELDVGGSGSGSLVPRGSGSGSGSVEALVRHNVLITRHNDIVVKVLDIIAKILKLIAEAVGGSGSGSELERILRELEEALKELRKATEELRRLSEELKVGGSGSGSLVPRGSGSGSGSHEALVRHNEAIVEHNKIVVKVLDIIAKILELITERI
For the molecule B8, in data set [1] (setting [5]), the “kinetics of liposome disruption relative to pRO2.3, nanoparticle fusion” value is given as “slower kinetics” and the “liposome disruption better than pRO2.3, nanoparticle fusion” value is 5-10%.

B9: 2L6HC3_13: previous designed homotrimer lacking buried histidines, PDB ID 5J0H (protein)
chain: GTKYELRRALEELEKALRELKKSLDELERSLEELEKNPSEDALVENNRLNVENNKIIVEVLRIIAEVLKINAKSD
For B9, the “pH response of oligomeric state (pH-induced disassembly)” value is reported as “no change in oligomeric state; also recorded: no significant pH response” in data set [2] and “not pH-sensitive” in data set [2] (listed as 2L6C3_13). In addition, the “folding stability by GdmCl denaturation” value in data set [3] was “no change”; in data set [3] (listed as 2L6C3_13), “no destabilization”.
